Laboratory results: article PMC3689846

Experiments:
[1] = molecular target: Core.BaL-GT1 (germline-targeting variant of core gp120) (HIV-1 strain BaL (from the name)); experiment: SPR
[2] = molecular target: eOD-GT1 (HIV-1 strain HxB2); experiment: SPR

| Binder | Kd [1] [nM] | Kd [2] [nM] |
| --- | --- | --- |
| 12A12 (mature) (antibody, V domains shown) VH: SQHLVQSGTQVKKPGASVRISCQASGYSFTDYVLHWWRQAPGQGLEWMGWIKPVYGARNYARRFQGRINFDRDIYREIAFMDLSGLRSDDTALYFCARDGSGDDTSWHLDPWGQGTLVIVSA VL: DIQMTQSPSSLSASVGDRVTITCQAGQGIGSSLQWYQQKPGKAPKLLVHGASNLHRGVPSRFSGSGFHTTFSLTISGLQRDDFATYFCAVLEFFGPGTKVEIK | 1 |  |
| NIH45-46 (mature) (antibody, V domains shown) VH: QVRLSQSGGQMKKPGESMRLSCRASGYEFLNCPINWIRLAPGRRPEWMGWLKPRGGAVNYARKFQGRVTMTRDVYSDTAFLELRSLTSDDTAVYFCTRGKYCTARDYYNWDFEHWGRGAPVTVSS VL: EIVLTQSPATLSLSPGETAIISCRTSQSGSLAWYQQRPGQAPRLVIYSGSTRAAGIPDRFSGSRWGADYNLSISNLESGDFGVYYCQQYEFFGQGTKVQVD |  | 3 |
